Patent publication US20210301277

T1: human TF (Innovin, DADE/Behring), P13726
T1 chain: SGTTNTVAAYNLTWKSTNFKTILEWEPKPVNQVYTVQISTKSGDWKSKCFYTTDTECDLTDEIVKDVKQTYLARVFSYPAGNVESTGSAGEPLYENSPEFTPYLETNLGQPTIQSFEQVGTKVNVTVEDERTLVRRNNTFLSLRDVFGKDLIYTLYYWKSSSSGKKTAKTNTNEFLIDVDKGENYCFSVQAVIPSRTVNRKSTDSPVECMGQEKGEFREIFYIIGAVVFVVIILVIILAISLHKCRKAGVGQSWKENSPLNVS

B1: FIXgla-egf1FVIIa (protein)
chain: YNSGKLEEFVQGNLERECMEEKCSFEEAREVFENTERTTEFWKQYVDGDQCESNPCLNGGSCKDDINSYECWCPFGFEGKNCETHKDDQLICVNENGGCEQYCSDHTGTKRSCRCHEGYSLLADGVSCTPTVEYPCGKIPILEKRNASKPQGRIVGGKVCPKGECPWQVLLLVNGAQLCGGTLINTIWVVSAAHCFDKIKNWRNLIAVLGEHDLSEHDGDEQSRRVAQVIIPSTYVPGTTNHDIALLRLHQPVVLTDHVVPLCLPERTFSERTLAFVRFSLVSGWGQLLDRGATALELMVLNVPRLMTQDCLQQSRKVGDSPNITEYMFCAGYSDGSKDSCKGDSGGPHATHYRGTWYLTGIVSWGQGCATVGHFGVYTRVSQYIEWLQKLMRSEPRPGVLLRAPFP
B2: PCgla-egf1FVIIa (protein)
chain 1: ANSFLEELRHSSLERECIEEICDFEEAKEIFQNVDDTLAFWSKHVDGDQCLVLPLEHPCASLCCGHGTCIDGIGSFSCDCRSGWEGRFCQRKDDQLICVNENGGCEQYCSDHTGTKRSCRCHEGYSLLADGVSCTPTVEYPCGKIPILEKRNASKPQGR
chain 2: IVGGKVCPKGECPWQVLLLVNGAQLCGGTLINTIWVVSAAHCFDKIKNWRNLIAVLGEHDLSEHDGDEQSRRVAQVIIPSTYVPGTTNHDIALLRLHQPVVLTDHVVPLCLPERTFSERTLAFVRFSLVSGWGQLLDRGATALELMVLNVPRLMTQDCLQQSRKVGDSPNITEYMFCAGYSDGSKDSCKGDSGGPHATHYRGTWYLTGIVSWGQGCATVGHFGVYTRVSQYIEWLQKLMRSEPRPGVLLRAPFP

Molecular target: T1, human TF (Innovin, DADE/Behring), P13726

Row | Protein | FX activation in the presence of 1 nM TF (FXa generation rates, mOD/min) | TF-dependent activity (FX activation, cleavage of chromogenic FXa substrate at 405 nm)
1 | B1 | The lack of FX activation, even at 100-fold higher concentration than that of rFVIIa | 
2 | B2 | The lack of FX activation, even at 100-fold higher concentration than that of rFVIIa | the activity of PCgla-egf1FVIIa was identical to the vehicle control
